Test results published in patent US20020002269A1, “ARTEMIN, A NEUROTROPHIC FACTOR” (priority 1998, published 2002).

Key:
[1] = tested on: SH-SY5Y neuroblastoma cell line; test: Differentiation of SH-SY5Y neuroblastoma cells; type: cell-based; conditions: 10 μM, three days after factor addition, FIG. 8B
Method: In one experiment, cells from the SH-SY5Y neuroblastoma cell line were plated at 2×10^5 cells/ml/well in 12-well tissue culture plates. After one day in culture cells were either left untreated (Cn) or stimulated with 50 ng/ml artemin (ART) or 10 μM retinoic acid (RA), a known inducer of differentiation of SH-SYSY cells. Three days after factor addition, differentiation was assessed and cells were photographed.

[2] = target: recombinant human artemin protein (human); test: plate binding assay: ligand coated, soluble receptor body titrated, anti-human Fc-HRP, A450; apparent Kd
[3] = target: recombinant neurturin (human mature amino acid sequence) (human); test: as above
[4] = target: recombinant GDNF (human mature amino acid sequence) (human); test: as above
[5] = tested on: dorsal root ganglion (DRG) neurons; test: Survival of cultured dorsal root ganglion neurons; type: cell-based, rat; conditions: 50 ng/ml, 3 days in culture, FIG. 7A
Method: (§1) Each GDNF ligand family member consisted of the human mature amino acid sequence and was produced by standard recombinant DNA methods. Recombinant GDNF, neurturin and persephin were obtained from Genentech while recombinant artemin was produced as described in Example 3.
(§2) The cultures were performed using standard methods described elsewhere (Kotzbauer et al., Neuron 12:763-773, 1994; Kotzbauer et al., Nature 384:467-470, 1996; Milbrandt et al., Neuron 20:245-253, 1998). In brief, for SCG neurons, after dissection and dissociation, neurons were plated on collagen-coated 24-well tissue culture plates and maintained in NGF-containing medium (AM50) for 5 days, after which they were either kept in AM50 or switched to medium containing neutralizing anti-NGF antibodies plus GDNF, neurturin, persephin, artemin, (50 ng/ml where not noted otherwise), or no growth factors. Cultures were maintained for 3 days, after which they were fixed in 4% paraformaldehyde and stained with toluidine blue, and surviving neurons were counted. For nodose ganglion and dorsal root ganglion neuron cultures, dissociated neurons were plated directly into NGF (for dorsal root ganglia), or BDNF (for nodose ganglia, 100 ng/ml) or one of the GDNF ligands in serum-containing medium (AM50 with anti-NGF antibodies), and cells surviving after 3 days in culture were counted as above. Trigeminal ganglia were dissected, dissociated, and plated directly into medium containing NGF or the indicated GDNF ligands, and the number of surviving cells was assessed after 3 days in vitro. For all culture systems, 2-3 independent experiments were performed.

[6] = tested on: trigeminal ganglion (TG) neurons; test: Survival of cultured trigeminal ganglion neurons; type: cell-based, rat; conditions: 50 ng/ml, 3 days in vitro, FIG. 7C
Method: as §1, §2

[7] = tested on: nodose ganglion (NG) neurons; test: Survival of cultured nodose ganglion neurons; type: cell-based, rat; conditions: FIG. 7D
Method: as §1, §2

[8] = tested on: CHP126 neuroblastoma cell line; test: Responsiveness of a neuroblastoma cell line that does not express RET (CHP126); type: cell-based; conditions: data not shown
[9] = tested on: CHP134 neuroblastoma cell line; test: Responsiveness of a neuroblastoma cell line that does not express RET (CHP134); type: cell-based; conditions: data not shown
[10] = tested on: SAN neuroblastoma cell line; test: Responsiveness of a neuroblastoma cell line that does not express RET (SAN); type: cell-based; conditions: data not shown
[11] = tested on: GFRα1-Fc; test: Direct binding of soluble GFRα1-Fc receptor body to plate-coated ligand; conditions: ligand coated at 325 ng/ml, absence of RET, FIG. 9C
Method: (§3) To investigate which if any of the known coreceptor(s) artemin can utilize to activate RET, its ability to directly bind to soluble Fc-fusion forms of GFRα1, GFRα2, or GFRα3 was assessed. GFRα1-Fc, GFRα2-Fc and GFRα3-Fc fusion proteins were obtained from R&D Systems. Binding assays were performed similarly to assays previously described (Sanicola et al., Proc. Natl. Acad. Sci., USA 94:6238-6243, 1997). Recombinant GDNF, neurturin, artemin, persephin, or purified bovine serum albumin (BSA; Pierce) were coated to Nunc-Immuno MaxiSorp microtiter plates at 325 ng/ml in TBS (10 mM Tris-HCl pH 7.5, 150 mM NaCl) for 1 hour at 25° C. Plates were washed (3× in TBS/0.03% Tween-20), and then blocked (blocking solution: TBS/1% BSA) for 1 hr at 25° C. Receptor bodies diluted in blocking solution were added and incubated for 2 hr at 25° C., washed 5X, then incubated with 1:10,000 dilution of HRP-conjugated anti-human Fc antibodies in blocking solution (Jackson Immunoresearch) for 45 minutes at 25° C. Finally, wells were washed 5× and the presence of HRP was assayed by addition of the chromogenic substrate 3,3, 5,5-tetramethylbenzidine for 5 min. The reaction was stopped by adding an equal volume of 0.5M H2SO4, and color was measured in a plate reader at 450 nm. Non-specific binding of receptor bodies to the plates was measured in BSA coated wells, and this binding was subtracted from all other measurements.

[12] = tested on: GFRα2-Fc; test: Direct binding of soluble GFRα2-Fc receptor body to plate-coated ligand; conditions: ligand coated at 325 ng/ml, absence of RET, FIG. 9D
Method: as §3, with “Finally, wells were washed 5× and the presence of HRP was assayed by addition of the chromogenic substrate 3,3, 5,5-tetramethylbenzidine for 5 min.” left out

[13] = tested on: NBL-S neuroblastoma cell line; test: BrdU cell proliferation assay in NBL-S neuroblastoma cells; type: cell-based; conditions: 50 ng/mL, 30 hrs after factor addition, FIG. 8D
Method: In another experiment, the ability of artemin to induce proliferation of the NBL-S neuroblastoma cell line was examined. NBL-S cells were plated at 5×10^4 cells/well on 48-well plates in standard medium, either without treatment or in the presence of 50 ng/mL of GDNF, artemin, or persephin. Actively dividing cells undergoing DNA synthesis 30 hrs after factor addition were detected using the BrdU (colorimetric) cell proliferation assay kit according to the manufacturer's instructions (Boehringer-Mannheim) and the data are shown in FIG. 8D.

`CC1=C(/C=C/C(C)=C/C=C/C(C)=C/C(=O)O)C(C)(C)CCC1` [retinoic acid, all-trans retinoic acid, reference compound] was tested, and the “differentiation (neurite outgrowth, neuronal morphology) of SH-SY5Y cells” value [1] was “induced strong differentiation responses”.

GFRα3-Fc fusion protein showed a Kd [2] of 3 nM.

With GFRα2-Fc fusion protein the Kd [3] was 3 nM.

GFRα1-Fc fusion protein gave a Kd [4] of 3 nM and a Kd [3] of 3 nM.

B1: neurturin: recombinant human mature neurturin obtained from Genentech (protein, UniProt Q99748 96-197, looked up)
Neurturin: ARLGARPCGLRELEVRVSELGLGYASDETVLFRYCAGACEAAARVYDLGLRRLRQRRRLRRERVRAQPCCRPTAYEDEVSFLDAHSRYHTVHELSARECACV
For B1, the “survival of DRG sensory neurons” value [5] was “supported the survival of a subset of sensory neurons”, the “survival of TG sensory neurons” value [6] was “supported the survival of a subset of sensory neurons” and the “survival of NG neurons” value ([7]; 50 ng/ml, 3 days in culture) was “supported similar numbers of NG neurons”. The “survival promotion of NG neurons compared with BDNF” value ([7]; GDNF family ligands 50 ng/ml, BDNF 100 ng/ml) was “equal or greater survival promotion than BDNF”, the “response of CHP126 cells” value [8] was “did not respond” and the “response of CHP134 cells” value [9] was “did not respond”. The “response of SAN cells” value [10] was “did not respond”, the “direct binding of GFRα1-Fc” value [11] was “able to bind to both GDNF and neurturin with similar affinity” and the “direct binding of GFRα2-Fc” value [12] was “bound to neurturin”.

B2: persephin: recombinant human mature persephin obtained from Genentech (protein, UniProt O60542 22-156, looked up)
Persephin: WGPDARGVPVADGEFSSEQVAKAGGTWLGTHRPLARLRRALSGPCQLWSLTLSVAELGLGYASEEKVIFRYCAGSCPRGARTQHGLALARLQGQGRAHGGPCCRPTRYTDVAFLDDRHRWQRLPQLSAAACGCGG
In the case of B2, the “proliferation of NBL-S cells (BrdU incorporation)” value [13] is reported as “did not” and the “direct binding of GFRα1-Fc” value [11] is reported as “not to persephin or artemin”.
